{
  "source": "patent US20200024330A1",
  "assay_in_all_cases": "cell-based or functional assay",
  "key": {"[1]": {"target": "HIV-1 Env of isolate ZM249 (HIV-1)"}, "[2]": {"target": "HIV-1 Env of isolate THRO.18 (HIV-1)"}, "[3]": {"target": "HIV-1 Env of isolate DU422 (HIV-1)"}, "[4]": {"target": "HIV-1 Env of isolate 92UG114 (subtype D), on pseudovirus (HIV-1)"}, "[5]": {"target": "HIV-1 Env of isolate MGRM-AE-004 (pseudovirus) (HIV-1)"}, "[6]": {"target": "HIV-1 Env of isolate MGRM-AE-005 (pseudovirus) (HIV-1)"}, "[7]": {"target": "HIV-1 Env of isolate 92WR021 (pseudovirus) (HIV-1)"}, "[8]": {"target": "HIV-1 Env of isolate MG RM-A-014 (pseudovirus) (HIV-1)"}, "[9]": {"target": "HIV-1 Env of isolate 93UG077 (pseudovirus) (HIV-1)"}, "[10]": {"target": "HIV-1 Env of isolate MGRM-D-008 (subtype D), on pseudovirus (HIV-1)"}, "[11]": {"target": "HIV-1 Env of isolate 92RW009 (clade A), on pseudovirus (HIV-1)"}, "[12]": {"target": "HIV-1 Env of isolate 92TH021 (pseudovirus) (HIV-1)"}, "[13]": {"target": "HIV-1 Env of isolate MGRM-D-004 (subtype D), on pseudovirus (HIV-1)"}, "[14]": {"target": "HIV-1 Env of isolate 6535.3 (HIV-1)"}, "[15]": {"target": "HIV-1 Env of isolate 92UG037 (pseudovirus) (HIV-1)"}, "[16]": {"target": "HIV-1 JR-CSF Env K305A (HIV-1 JR-CSF) (UniProt P20871)"}, "[17]": {"target": "HIV-1 92UG005 Env (pseudovirus) (HIV-1)"}, "[18]": {"target": "HIV-1 Env of isolate CMU02 (clade AE) (HIV-1)"}, "[19]": {"target": "HIV-1 Env of isolate NL43 (clade B) (HIV-1)"}, "[20]": {"target": "HIV-1 Env of isolate JRFL (clade B) (HIV-1)"}, "[21]": {"target": "HIV-1 Env of isolate MGRM-AG-005 (clade AG) (HIV-1)"}, "[22]": {"target": "HIV-1 Env of isolate 94UG103 (clade A) (HIV-1)"}, "[23]": {"target": "HIV-1 envelope glycoprotein (Env) of isolate 92BR020, on pseudovirus (HIV-1)"}, "[24]": {"target": "HIV-1 Env of isolate MGRM-F1-017 (clade F), on pseudovirus (HIV-1)"}, "[25]": {"target": "HIV-1 JRFL Env (clade B pseudovirus) (HIV-1)"}, "[26]": {"target": "HIV-1 MGRM-C-027 Env (clade C pseudovirus) (HIV-1)"}, "[27]": {"target": "HIV-1 CMU02 Env (clade AE pseudovirus) (HIV-1)"}, "[28]": {"target": "HIV-1 APV6 Env (clade B pseudovirus) (HIV-1)"}, "[29]": {"target": "HIV-1 94UG103 Env (clade A pseudovirus) (HIV-1)"}, "[30]": {"target": "HIV-1 MGRM-D-001 Env (clade D pseudovirus) (HIV-1)"}},
  "data": [
    {"substance": "1443_C16 (PG16) (TCN-116) (antibody)", "values": [
      {"measurement": "IC50, pseudovirus neutralization (TZM-bl)", "setting": "[1]", "result": "< 0.01", "unit": "µg/mL"},
      {"measurement": "IC50, pseudovirus neutralization (TZM-bl)", "setting": "[2]", "result": 2.19, "unit": "µg/mL"},
      {"measurement": "IC50, pseudovirus neutralization (TZM-bl)", "setting": "[3]", "result": 0.59, "unit": "µg/mL"}
    ]},
    {"substance": "VRC01 (antibody)", "values": [
      {"measurement": "IC50, pseudovirus neutralization", "setting": "[4]", "result": 0.33, "unit": "µg/mL"},
      {"measurement": "IC50 (µg/mL), pseudovirus neutralization", "setting": "[5]", "result": 0.187, "unit": "µg/mL"},
      {"measurement": "IC50 (µg/mL), pseudovirus neutralization", "setting": "[6]", "result": 0.029, "unit": "µg/mL"},
      {"measurement": "IC50 (µg/mL), pseudovirus neutralization", "setting": "[7]", "result": 0.066, "unit": "µg/mL"},
      {"measurement": "IC50 (µg/mL), pseudovirus neutralization", "setting": "[8]", "result": 0.135, "unit": "µg/mL"},
      {"measurement": "IC50 (µg/mL), pseudovirus neutralization", "setting": "[9]", "result": 0.097, "unit": "µg/mL"},
      {"measurement": "IC50, pseudovirus neutralization", "setting": "[10]", "result": 0.854, "unit": "µg/mL"},
      {"measurement": "IC50, single-round pseudovirus neutralization", "setting": "[11]", "result": 0.187, "unit": "µg/mL"},
      {"measurement": "IC50 (µg/mL), pseudovirus neutralization", "setting": "[12]", "result": 0.616, "unit": "µg/mL"},
      {"measurement": "IC50, pseudovirus neutralization", "setting": "[13]", "result": 1.25, "unit": "µg/mL"},
      {"measurement": "IC50", "setting": "[14]", "result": 1.75, "unit": "µg/mL"},
      {"measurement": "IC50 (µg/mL), pseudovirus neutralization", "setting": "[15]", "result": 0.245, "unit": "µg/mL"}
    ]},
    {"substance": "PGT-121 (antibody)", "values": [
      {"measurement": "Fold IC50 increase relative to wild-type", "setting": "[16]", "result": 1.9, "unit": "fold"}
    ]},
    {"substance": "5141_B17 (PGT-126) (antibody)", "values": [
      {"measurement": "IC50", "setting": "[17]", "result": 0.0181, "unit": "µg/mL"},
      {"measurement": "IC80", "setting": "[17]", "result": 0.145, "unit": "µg/mL"},
      {"measurement": "IC90", "setting": "[17]", "result": 0.553, "unit": "µg/mL"},
      {"measurement": "IC95", "setting": "[17]", "result": 2.45, "unit": "µg/mL"}
    ]},
    {"substance": "5147_N06 (PGT-130) (antibody)", "values": [
      {"measurement": "neutralization IC50", "setting": "[18]", "result": "> 10", "unit": "µg/mL"},
      {"measurement": "neutralization IC80", "setting": "[18]", "result": "> 10", "unit": "µg/mL"},
      {"measurement": "neutralization IC90", "setting": "[18]", "result": "> 10", "unit": "µg/mL"},
      {"measurement": "neutralization IC95", "setting": "[18]", "result": "> 10", "unit": "µg/mL"},
      {"measurement": "neutralization IC50", "setting": "[19]", "result": "> 10", "unit": "µg/mL"},
      {"measurement": "neutralization IC80", "setting": "[19]", "result": "> 10", "unit": "µg/mL"},
      {"measurement": "neutralization IC90", "setting": "[19]", "result": "> 10", "unit": "µg/mL"},
      {"measurement": "neutralization IC95", "setting": "[19]", "result": "> 10", "unit": "µg/mL"},
      {"measurement": "neutralization IC50", "setting": "[20]", "result": 0.0346, "unit": "µg/mL"},
      {"measurement": "neutralization IC80", "setting": "[20]", "result": 0.751, "unit": "µg/mL"},
      {"measurement": "neutralization IC90", "setting": "[20]", "result": 5.72, "unit": "µg/mL"},
      {"measurement": "neutralization IC95", "setting": "[20]", "result": "> 10", "unit": "µg/mL"},
      {"measurement": "neutralization IC50", "setting": "[21]", "result": 0.947, "unit": "µg/mL"},
      {"measurement": "neutralization IC80", "setting": "[21]", "result": "> 10", "unit": "µg/mL"},
      {"measurement": "neutralization IC90", "setting": "[21]", "result": "> 10", "unit": "µg/mL"},
      {"measurement": "neutralization IC95", "setting": "[21]", "result": "> 10", "unit": "µg/mL"},
      {"measurement": "neutralization IC50", "setting": "[22]", "result": 0.635, "unit": "µg/mL"},
      {"measurement": "neutralization IC80", "setting": "[22]", "result": "> 10", "unit": "µg/mL"},
      {"measurement": "neutralization IC90", "setting": "[22]", "result": "> 10", "unit": "µg/mL"},
      {"measurement": "neutralization IC95", "setting": "[22]", "result": "> 10", "unit": "µg/mL"}
    ]},
    {"substance": "PGV04 (antibody)", "values": [
      {"measurement": "IC50, pseudovirus neutralization", "setting": "[23]", "result": 0.25, "unit": "µg/mL"},
      {"measurement": "IC50 (µg/mL), single-round pseudovirus neutralization", "setting": "[24]", "result": 2.38, "unit": "µg/mL"}
    ]},
    {"substance": "4877_D15 (PGT-122) (antibody)", "values": [
      {"measurement": "Neutralization by PGT-122, IC50", "setting": "[25]", "result": 0.0471, "unit": "µg/mL"},
      {"measurement": "Neutralization by PGT-122, IC80", "setting": "[25]", "result": 0.166, "unit": "µg/mL"},
      {"measurement": "Neutralization by PGT-122, IC90", "setting": "[25]", "result": 0.342, "unit": "µg/mL"},
      {"measurement": "Neutralization by PGT-122, IC95", "setting": "[25]", "result": 0.659, "unit": "µg/mL"},
      {"measurement": "Neutralization by PGT-122, IC50", "setting": "[26]", "result": 0.0388, "unit": "µg/mL"},
      {"measurement": "Neutralization by PGT-122, IC80", "setting": "[26]", "result": 0.499, "unit": "µg/mL"},
      {"measurement": "Neutralization by PGT-122, IC90", "setting": "[26]", "result": "> 10", "unit": "µg/mL"},
      {"measurement": "Neutralization by PGT-122, IC95", "setting": "[26]", "result": "> 10", "unit": "µg/mL"},
      {"measurement": "Neutralization by PGT-122, IC50", "setting": "[27]", "result": "> 10", "unit": "µg/mL"},
      {"measurement": "Neutralization by PGT-122, IC80", "setting": "[27]", "result": "> 10", "unit": "µg/mL"},
      {"measurement": "Neutralization by PGT-122, IC90", "setting": "[27]", "result": "> 10", "unit": "µg/mL"},
      {"measurement": "Neutralization by PGT-122, IC95", "setting": "[27]", "result": "> 10", "unit": "µg/mL"},
      {"measurement": "Neutralization by PGT-122, IC50", "setting": "[28]", "result": 0.0851, "unit": "µg/mL"},
      {"measurement": "Neutralization by PGT-122, IC80", "setting": "[28]", "result": 0.351, "unit": "µg/mL"},
      {"measurement": "Neutralization by PGT-122, IC90", "setting": "[28]", "result": 0.779, "unit": "µg/mL"},
      {"measurement": "Neutralization by PGT-122, IC95", "setting": "[28]", "result": 1.55, "unit": "µg/mL"},
      {"measurement": "Neutralization by PGT-122, IC50", "setting": "[29]", "result": 1.46, "unit": "µg/mL"},
      {"measurement": "Neutralization by PGT-122, IC80", "setting": "[29]", "result": 6.58, "unit": "µg/mL"},
      {"measurement": "Neutralization by PGT-122, IC90", "setting": "[29]", "result": "> 10", "unit": "µg/mL"},
      {"measurement": "Neutralization by PGT-122, IC95", "setting": "[29]", "result": "> 10", "unit": "µg/mL"},
      {"measurement": "Neutralization by PGT-122, IC50", "setting": "[30]", "result": 0.867, "unit": "µg/mL"},
      {"measurement": "Neutralization by PGT-122, IC80", "setting": "[30]", "result": 4.48, "unit": "µg/mL"},
      {"measurement": "Neutralization by PGT-122, IC90", "setting": "[30]", "result": "> 10", "unit": "µg/mL"},
      {"measurement": "Neutralization by PGT-122, IC95", "setting": "[30]", "result": "> 10", "unit": "µg/mL"}
    ]}
  ]
}
